Three molecules from patent US20240124885A1 (MENDEL BIOTECHNOLOGY, published 2024) can be followed below.

Assay [1] concerns the target T1, AtBBX32::GFP (Arabidopsis thaliana, UniProt Q9LJB7 1-225).
T1 construct: Fusion protein transiently expressed in soybean cotyledon protoplasts; also called AtBBX32 fused to GFP; not shown: GFP fusion partner
T1 sequence: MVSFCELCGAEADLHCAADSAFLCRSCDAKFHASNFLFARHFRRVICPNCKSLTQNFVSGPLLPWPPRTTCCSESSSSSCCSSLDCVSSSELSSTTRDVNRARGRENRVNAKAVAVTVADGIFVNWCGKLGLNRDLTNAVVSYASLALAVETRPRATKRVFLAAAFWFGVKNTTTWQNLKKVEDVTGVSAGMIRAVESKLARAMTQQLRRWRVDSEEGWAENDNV
The assay can be described thus: Luminex co-IP from soybean cotyledon protoplast extract, both directions. The procedure:
(§1) Capture antibodies for GFP (MBL International, D153-3),Myc (Bethyl Laboratories cat #A190-104A)and FLAG (Bethyl Laboratories, A190-101A) were covalently coupled to carboxylated fluorescent microspheres (Luminex) according to the manufacturer's protocol Luminex two-step Carbodimide coupling protocol was modified as follows: 3.5×10⁶ beads were conjugated to […] of antibody and resuspended in coupling buffer containing 100 mM MES pH 6. Biotinylated antibodies for GFP (Abcam, ab6658), Myc (Bethyl Laboratories cat #A190-104B)and FLAG (Bethyl laboratories, A190-101B) were used for detection of interacting proteins in the miniaturized sandwich immunoassay. NeutrAvidin R-phycoerythrin was used as the reporter assay reagent (Invitrogen, A2660).
To assess the potential interaction between AtBBX32 and GmBBX39, two experiments were conducted consisting of a total of three repetitions (exp. 1, n=1; exp. 2, n=2). BBX32::GFP was co-expressed with FLAG::GmBBX39 in soybean cotyledon protoplasts. Expression analyses on one replicate of each treatment using either Luminex (BBX32::GFP) or Western blot (FLAG::BBX39) detection confirmed that each protein was expressed at detectable levels (data not shown). When co-expressed in protoplasts, BBX32::GFP and FLAG::BBX39 co-precipitated with either anti-GFP or anti-FLAG beads (FIG. 17).

For assay [2], the target named is T1, AtBBX32::GFP. The assay can be described thus: Luminex co-IP, anti-GFP and anti-Myc capture. The method, then: Luminex co-IP assays were performed on extracts from soybean cotyledon protoplasts co-expressing AtBBX32 fused to GFP and GmBBX39 fused to the Myc epitope. A: IP with anti-GFP, detection with anti-Myc. B: IP with anti-Myc, detection with anti-GFP. MFI stands for Median Fluorescence Intensity. * denotes p<0.001.
as §1

Assay [3] has as its target Flag::GmBBX62 (Glycine max). The assay can be described thus: reciprocal Luminex co-IP from soybean protoplast extract, anti-FLAG capture, anti-GFP detection.
In assay [4] the target is Flag::GmBBX62 (Glycine max). Kind of assay: Luminex co-IP from soybean protoplast extract, anti-GFP capture, anti-FLAG detection.

B1: FLAG::GmBBX39 (other)
chain: MKIQCDVCNKHEASVFCTADEAALCDGCDHRVHHANKLASKHQRFSLLRPSPKQHPLCDICQERRAFTFCQQDRAILCKECDVSIHSANEHTLKHDRFLLTGVKLSASAMLRSSETTSDSNSNPSLLNFSHQTTLLPPSSTTTTTTSNNNNNKVAVEGTGSTSASSISEYLIETLPGWQVEDFLDSYSVPFGFCKNDEVLPRFDGEMEGHLSSFSTENMGIWVPQAPPTLMCSSQMDRVIVHGETNIKGSSRSRLKDDNFTVPQISPPSNSKRARFLW
notes: Co-expressed with BBX32::GFP in soybean cotyledon protoplasts; also called FLAG::BBX39; not shown: FLAG tag
Regarding B1, the binding result in assay [1] is listed as “binds”.

B2: GmBBX39 fused to the Myc epitope (other, not shown: small tags and cut ends)
chain: MKIQCDVCNKHEASVFCTADEAALCDGCDHRVHHANKLASKHQRFSLLRPSPKQHPLCDICQERRAFTFCQQDRAILCKECDVSIHSANEHTLKHDRFLLTGVKLSASAMLRSSETTSDSNSNPSLLNFSHQTTLLPPSSTTTTTTSNNNNNKVAVEGTGSTSASSISEYLIETLPGWQVEDFLDSYSVPFGFCKNDEVLPRFDGEMEGHLSSFSTENMGIWVPQAPPTLMCSSQMDRVIVHGETNIKGSSRSRLKDDNFTVPQISPPSNSKRARFLW
B2: the binding result in assay [2] is reported as “binds”.

B3: AtBBX32::GFP (protein, not shown: large carriers)
chain: MVSFCELCGAEADLHCAADSAFLCRSCDAKFHASNFLFARHFRRVICPNCKSLTQNFVSGPLLPWPPRTTCCSESSSSSCCSSLDCVSSSELSSTTRDVNRARGRENRVNAKAVAVTVADGIFVNWCGKLGLNRDLTNAVVSYASLALAVETRPRATKRVFLAAAFWFGVKNTTTWQNLKKVEDVTGVSAGMIRAVESKLARAMTQQLRRWRVDSEEGWAENDNV
The molecule B3 had a fold increase of fluorescence intensity over controls in assay [3] of 5 fold. The molecule further showed a fold increase of median fluorescence intensity (MFI) over controls in assay [4] of 6 fold.
